These results are taken from PMC9464890, “Exosite binding modulates the specificity of the immunomodulatory enzyme ScpA, a C5a inactivating bacterial protease” (Computational and Structural Biotechnology Journal, 2022).

One may read the Kd as a measure of binding affinity in units of concentration. Higher therefore signals weaker binding. The koff is the rate constant with which the complex falls apart. A lower koff goes with a long-lived complex. Usually kon stands for a measure of how fast the partners come together. A low value points to slow association.

One test concerns the target T1, ScpA_(S512A) (Streptococcus pyogenes, UniProt P15926 31-1032, S512A).
T1 construct: Plasmid pGEX ScpA(31-1032) was the template; also called C5a peptidase from Streptococcus pyogenes, active site serine to alanine mutant; source: details in Supplemental Information SI1 and SI2
T1 sequence (looked up): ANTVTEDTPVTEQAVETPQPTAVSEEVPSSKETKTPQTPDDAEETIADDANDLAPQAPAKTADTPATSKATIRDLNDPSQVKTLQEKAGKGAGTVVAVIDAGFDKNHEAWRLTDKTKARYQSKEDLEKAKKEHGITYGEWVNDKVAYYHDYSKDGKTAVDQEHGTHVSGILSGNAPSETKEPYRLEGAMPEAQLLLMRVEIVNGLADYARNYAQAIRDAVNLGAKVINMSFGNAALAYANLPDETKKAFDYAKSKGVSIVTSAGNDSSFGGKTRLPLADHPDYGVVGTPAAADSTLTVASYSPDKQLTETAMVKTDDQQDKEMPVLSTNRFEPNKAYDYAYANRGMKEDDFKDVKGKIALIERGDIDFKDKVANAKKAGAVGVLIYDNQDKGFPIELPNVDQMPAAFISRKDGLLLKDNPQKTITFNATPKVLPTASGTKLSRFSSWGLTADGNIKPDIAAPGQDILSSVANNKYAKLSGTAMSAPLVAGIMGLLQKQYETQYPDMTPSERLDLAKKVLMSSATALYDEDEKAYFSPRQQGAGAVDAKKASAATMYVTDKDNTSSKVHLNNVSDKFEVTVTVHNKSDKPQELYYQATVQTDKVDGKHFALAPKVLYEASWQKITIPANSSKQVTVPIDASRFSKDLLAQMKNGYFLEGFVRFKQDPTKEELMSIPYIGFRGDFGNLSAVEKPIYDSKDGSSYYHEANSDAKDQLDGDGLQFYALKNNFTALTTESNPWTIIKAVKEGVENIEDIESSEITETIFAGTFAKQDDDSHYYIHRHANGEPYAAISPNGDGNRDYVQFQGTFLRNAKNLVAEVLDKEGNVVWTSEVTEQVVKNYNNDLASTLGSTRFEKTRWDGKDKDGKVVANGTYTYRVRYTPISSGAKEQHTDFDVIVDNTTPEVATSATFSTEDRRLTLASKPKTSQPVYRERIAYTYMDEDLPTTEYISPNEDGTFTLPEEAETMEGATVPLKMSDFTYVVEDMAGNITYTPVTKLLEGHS
Nature of the test: SPR; BIAcore X100, NTA sensor chip with about 20-25 RU of immobilised His-tagged C5a form (ligand), ScpA form flowed as ligate at 30 uL/min, 25 °C, 10 mM Hepes-KOH pH 7.4, 150 mM NaCl, 0.005% Tween 20, 50 uM EDTA; global fit, 1:1 Langmuir model with drifting baseline; triplicate. Conditions: both partners purified. On the technique in general: Surface plasmon resonance follows binding to a sensor surface in real time, without labels.

For a further test, the target named is T2, ScpA_(S512A,D889A) (Streptococcus pyogenes, UniProt P15926 31-1032, S512A | D889A).
T2 construct: Made by QuikChange II from pGEX ScpA(31-1032); also called D889A_(S512A); source: details in Supplemental Information SI1 and SI2
T2 sequence (looked up): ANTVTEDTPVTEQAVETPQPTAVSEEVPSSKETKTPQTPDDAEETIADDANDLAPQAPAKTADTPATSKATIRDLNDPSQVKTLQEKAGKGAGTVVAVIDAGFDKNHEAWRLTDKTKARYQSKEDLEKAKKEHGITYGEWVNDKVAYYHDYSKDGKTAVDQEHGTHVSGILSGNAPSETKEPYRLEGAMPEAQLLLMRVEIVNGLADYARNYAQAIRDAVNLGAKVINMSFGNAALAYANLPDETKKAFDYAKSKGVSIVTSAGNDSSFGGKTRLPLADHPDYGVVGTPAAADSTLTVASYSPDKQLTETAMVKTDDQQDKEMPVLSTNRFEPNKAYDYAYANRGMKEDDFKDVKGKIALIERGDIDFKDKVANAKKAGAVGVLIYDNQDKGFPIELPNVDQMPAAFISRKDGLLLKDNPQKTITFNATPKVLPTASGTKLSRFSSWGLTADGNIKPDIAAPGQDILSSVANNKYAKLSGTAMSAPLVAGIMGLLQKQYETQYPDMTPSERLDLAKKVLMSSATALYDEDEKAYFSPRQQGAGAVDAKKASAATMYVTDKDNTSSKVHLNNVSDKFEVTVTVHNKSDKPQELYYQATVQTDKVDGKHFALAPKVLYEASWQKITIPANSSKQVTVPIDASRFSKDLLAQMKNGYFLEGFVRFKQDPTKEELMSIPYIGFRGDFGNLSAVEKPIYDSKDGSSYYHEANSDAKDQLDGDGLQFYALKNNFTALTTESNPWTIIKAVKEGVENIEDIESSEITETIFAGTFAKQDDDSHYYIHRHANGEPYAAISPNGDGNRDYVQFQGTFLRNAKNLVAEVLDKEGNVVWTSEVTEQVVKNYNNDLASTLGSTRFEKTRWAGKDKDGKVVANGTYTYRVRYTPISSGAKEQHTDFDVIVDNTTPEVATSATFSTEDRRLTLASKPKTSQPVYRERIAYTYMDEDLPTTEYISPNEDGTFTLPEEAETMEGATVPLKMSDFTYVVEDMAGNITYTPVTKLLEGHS
Described as above. Conditions: both partners purified.

B1: Recombinant human C5a (rhC5a) (natural protein, UniProt P01031 678-751, looked up)
chain: TLQKKIEEIAAKYKHSVVKKCCYDGACVNNDETCEQRAARISLGPRCIKAFTECCVVASQLRANISHKDMQLGR
notes: human complement C5a anaphylatoxin, residues 1-74 (core 1-67 and tail 68-74); also called full length rhC5a; substrate; not shown: His6, N-terminal, kept
In the test with ScpA_(S512A), B1 gave a Kd of 34 nM, an off-rate (koff) of 0.007 s⁻¹ and an on-rate constant (kon) of 209000 M⁻¹ s⁻¹. In the test with ScpA_(S512A,D889A), this molecule gave an equilibrium dissociation constant (Kd) of 27 nM, a koff of 0.007 s⁻¹ and an on-rate (kon) of 263000 M⁻¹ s⁻¹.
